From the DeepSol protein solubility set

assay: soluble on expression in E. coli; label from the status in PepcDB or PDB records

Soluble on expression in E. coli, soluble:
MSLEIVQEGIAKIIVPEIPKTVSSDMPVFYNPRMRVNRDLAVLGLEYLCKKLGRPVKVADPLSASGIRAIRFLLETSCVEKAYANDISSKAIEIMKENFKLNNIPEDRYEIHGMEANFFLRKEWGFGFDYVDLDPFGTPVPFIESVALSMKRGGILSLTATDTAPLSGTYPKTCMRRYMARPLRNEFKHEVGIRILIKKVIELAAQYDIAMIPIFAYSHLHYFKLFFVKERGVEKVDKLIEQFGYIQYCFNCMNREVVTDLYKFKEKCPHCGSKFHIGGPLWIGKLWDEEFTNFLYEEAQKREEIEKETKRILKLIKEESQLQTVGFYVLSKLAEKVKLPAQPPIRIAVKFFNGVRTHFVGDGFRTNLSFEEVMKKMEELKEKQKEFLEKEGHHHHHH
MSLEKNKEYIFDIISQGYEGEGIAKIDNKYPIFIEGALKGEKVKVRIVKVNKNFAYGKLMEVLEASEERVNPPCAIYKRCGGCKLQHASYKAQLDFKWDRVKDCVSKIGKLDPSIVKYPLGMEEPWRYRNKVQLPIGLINGEVKIGFFAPRSHDIIDMESCLIQDEIGDKVVKLTREWIEKFNIRPYNVDGEYDEKGIVRHIMIRRGFTTNEVMVVLVTNGEKLPHKEEFVDLMVKNIPGIKSVIQNINSKKTNVILGLESKTLWGEDTISDYIGDFRFNISPLSFFQVNPTQTEVLYGKALEYANLTGNEEVFDAYCGTGTITLFLSQKAKKVYGVEIIPQAIDNAWINAKENKVENVEFFVGESEVVIPDLINKGVKADVVVVDPPRKGCDKKLLDAITNINAKKIVYVSCDPSTLGRDLAILEENGYKTLEVQPVDMFPNTSHVENVAKLIKKEGHHHHHH
MSLENVDPFDIIRQFRSVIAKTSLQASSNIEGLDTVWNSDLVLEANFWHLVEILLSFRTSQEFLDKESSISSKPYNSSIIFEKELLQKDKNLYQIWLIIVWIEGNFPFVEKPSNIPSSKWTNTLVTSGLMSSDLDYPLRDCSVVINDKDKADDHVFYKYVYELLLCGNYDQIFEECKLSDNITLNMIMCGMQEYVDPSIDVQLKDEFEVQQGVKKHSLWRRAVYSLSQNDKLDKYERAIYSYLAGDIPNDEVLQTLNWDSELLVYLNQILKIEVENYLLQNGKVNNEGHHHHHH
MSLEQFNVWFTVSEVQGLVKSGGLADVAKALPQALKALHQQVAIALPAYRSVPGKEDAELVLETELTHWPHTQYRVLKRDLDGVPIYLIDCPAYFDRPALYAENNQAYADNGERFGFFSAACLDVLPKLGIQPDIIHANDWHTGLVPFLLKTRYRYDSFFEQVKSVLTVHNAIFKGIFSYHQLEVIPELNLSGMEFLQYGHDHVSMLRAGIAFADKVNAVSPNYAAELLTPLGAHGLVDDFVRRARDLHGIVNGCDYSEWNPRTDHYLPATYSDEPESMRKGKALCKTALQEELHLPVTDVPLFGMVCRLTHQKGFHYLLPILEQFLRNNVQVVIVGTGEPEVAARLNKIAHYHRAKFAFVETYSERLAHWVEAGSDFFLMPSEFEACGLNQIYSMAYGTLPIVREVGGLKDTVNDYDKFPERATGFGYQEPTPEALLITMQRALLFYLQQPEEMLKVQQRAMQQNFSWEESAQEYMKMYRLARFEGHHHHHH
MSLEQKWKWWEEERYPEGIKWKFLEHKGPVFAPPYEPLPENVKFYYDGKVMKLSPKAEEVATFFAKMLDHEYTTKEIFRKNFFKDWRKEMTNEEKNIITNLSKCDFTQMSQYFKAQTEARKQMSKEEKLKIKEENEKLLKEYGEGHHHHHH
MSLEREVCVNQLLKFLDSIRGRLSFRMVERLFSRGLDENPIFEAISKSGALAKNVIIILGGRGCGKTLVMRYIKHYFEPEGWDYKYFSGDQFKEADAQELMKIISETRDLLENSEDYKVIVGIDDVVEASEAIRDTIKNQLVPLVVDYAGRIKLVISGQSERVVGTTTVLHILEDTLGRSPKAEMLFGEYPGEGHHHHHH
MSLESIKKRAYEIENELGKEIEEVCNFIFNNPELGEEEYISSKYLVEKMKEYGFDTVYPYCNMETAFRAELGDNDGPTIAFLAEYDALPGYGENKEPAHACGHNWIAASTLGACIVLSKLKENFKGKIVLIGTPAEETTGGKCDLVKAGAFDDVDVSYQMHIEAFNNINCKALAIDSLEFSFEGVSAHAASHPHMGVNALDAVQLTFAGINALRQHVKSDVRIHGIVSNGGEAPNIVPEKAACKFFVRAAERSYLDEVTKKVINCAKGAELMTGAKLSYRYFENSFDNIINNKVLQKITKNNLIEAGITDILEGKDGPVGSTDIGNVSQVCPTMYTEIALDISPMVYVHEKEFLNYANSEEAYDKLHKAVKAMVGCALEIYLEDGLLDEIKKNHLNEGHHHHHH
